The nature of the series: label from the status in PepcDB records.
“MNSTLFSQVENHSVHSNFSEKNAQLLAFENDDCHLPLAMIFTLALAYGAVIILGVSGNLALIIIILKQKEMRNVTNILIVNLSFSDLLVAIMCLPFTFVYTLMDHWVFGEAMCKLNPFVQCVSITVSIFSLVLIAVERHQLIINPRGWRPNNRHAYVGIAVIWVLAVASSLPFLIYQVMTDEPFQNVTLDAYKDKYVCFDQFPSDSHRLSYTTLLLVLQYFGPLCFIFICYFKIYIRLKRRNNMMDKMRDNKYRSSETKRINIMLLSIVVAFAVCWLPLTIFNTVFDWNHQIIATCNHNLLFLLCHLTAMISTCVNPIFYGFLNKNFQRDLQFFFNFCDFRSRDDDYETIAMSTMHTDVSKTSLKQASPVAFKKINNNDDNEKI”: the protein production result is “failed”.

As to “MNSYDFITALVPIILIIIGLGIIKKPAYYVIPISLIATVAIVIFYKNLGIVNTSLAMLEGALMGIWPIATVIIAAIFTYKMSEDQKDIETIKNILSNVSSDRRIIVLLVAWGFGNFLEGVAGYGTAVAIPVSILIAMGFEPFFACLICLIMNTSSTAYGSVGIPITSLAQATNLDVNIVSSEIAFQLILPTLTIPFVLVILTGGGIKGLKGVFLLTLLSGMSMAISQVFISKTLGPELPAILGSILSMTITIVYARFFGNKETTERQSKNTISLSKGIIACSPYILIVTFIVLVSPLFNKIHEYLKTFQSTISIYPEANPLHFKWIISPGFLIILATTISYSIRGVPMLKQLKIFTLTLKKMALSSFIIICIVAISRLMTHSGMIRDLANGISIITGKFGPLFSPLIGAIGTFLTGSDTVSNVLFGPLQTQMAENIGANPYWLAAANTTGATGGKMISPQNITIATTTAGLIGQEGKLLSKTIIYALYYILATGLLVYLV”, the protein production result is “failed”.

For “MNTDLTLVIMAAGLGSRFGGDKQLASLGPSGEPMLVLSILSAIRSGFQRAVLVIRPELEAELTGILTQFLPANFEYHFCYQSLSDLPQDAKLADLSHRLKPWGTAHALWCARDWVKGPMAVINADDFYGDSAFASLAKGLTARPNDWMMVAYPIELTLSEHGGVNRGLCQVAQGQLRSVAEWLNIQAQDDGFVGEGPNGLAKLPLQSLVSMTCWGFSPSIFNVIKQQLTAFIEQQGQLPKSECYLPAVVQAAIEQGVPVYVDVASEPWLGVTYPQDTVWVKQKLMELLGDKTHLEHHHHHH”, the protein production entry is reported as “failed”. Turning to “MNTHLKQLIEISHLDKEIDSLEPLIREKRKDLDKALNDKEAKNKAILNLEEEKLALKLQVSKNEQTLQDTNTKIASIQKKMSEIKSERELRSLNIEEDIAKERSNQANREIENLQNEIKHKSEKQEDLKKEMLELEKLVQQLESLVENEVKNIKETQQIIFKKKEELVEKTEPKIYSFYERIRRWAKNTSIVTIKKQACGGCFIRLNDKIYTEVLTSGDMITCPYCGRILYAEG”, the protein production entry is given as “failed”. Regarding “MNTHQNRYSVQSKVSALINCRLFQSFITTVIVLNAISIGLETYAFFKPYQKVFFIVDCLFLTIFVIELSLKLFVQKQHFFKNNWNVFDFVIVAGSLILYNTNFVSVLRIFRVLRVLRTITSVPSLRRIVNALFMAIPTISSVIILMSIIFYVYAVIGTMFFSAIAPEYFGNLQLSLLTLFQTFTLESWASGIFRPIFAESGWSWLYFVSFIVIATFIMINLIVGEIVNNAQKISQEIEDETGELKEDTKEIKELRAEVKELKALLQTYITQNEKKD”, the protein production result is given as “failed”.

As to “MNTLIASLEKVILPFAVKIGKQPHVNAIKNGFIRLMPLTLTGAMFVLINNVFLSFGEGSFFYSLGVRLDASTIETLNSLKSIGGSVYNGTLGIMSLMTPFFISMALAEERKVDPLASALLAVAAFMTVTPFNVGEAYAVGANWLGGANIISGMVIGLAVAEMFAFIVRRNWVISLPDSVPASVSRSFSALIPGFIILSIMGLVAFALAHWGTNFHQIIMDGISAPLAKMGSVVGWVYVLFSSLLWFFGVHGSMALAALDSGIMTPFALENVELYNKYGSVEAAVAAGKEFHMWAKPFVDSYIYLGGTGSTLGLIIAIFIASRREDYRQVAKLATPSGIFQINEPILFGLPVIMNPVMFIPFILVQPVLTIITSLAYYSGLIPPITNIAPWTMPVGLGAFFNTNGSIMAMLLSLFNLAVATVIYLPFVAISNKAQSQIDAATESEEDIAKALKF”, the protein production entry is “failed”. Consider “MNTLYTLFATCPRGLETVLSQELGSLGCTDVQAFDGGVSCRGGLEQAYAANLHSRTAGRILLRLTKGTYRTERDIYKLAKNINWFNWFTLQQTFKVKIEAKRANVKSLQFAGLTVKDAVCDAFRDIYDARPSVDKAAPDVRIHAFLDERNVEIFIDTSGEALFKRGYRLDTGEAPLRENLAAGLLLSAGYDGTQPFQDPFCGSGTIAIEAAWIAAGRAPGMMRRFGFEKLQNFDKTLWADLRRRAEAQTRPVRAPIAGSDNGRRIVQTALDNAHNAGADDIVSFSVAGAQSVRPNGENGIMVSNPPYGVRLEEVRALQALYPQLGTWLKKHYAGWRVGMFTGDREMPKFMRLLPKRKIPLYNGNIDCRLFLIDMVQGSNR”, for which the protein production result is on record as “not failed”. As to “MNTPLRRVAIAVMVMVVALLANATYVQVIKADNLRADPRNSRVLLDEYSRQRGQISAAGQVLAASVPTDDRYKYLRTYPPNPAAPSSPLANAPVTGFYSMQYGSTGLERSEDPVLNGSDNRLFGRRFFDLVSGRDPRGGNVVTTINPVMQQVAYDQLTAKGYTGSVVAIEPSTGRILTMVSTPSYDPNSLASHDGTETTQAWEALNADPEKPLINRAVSQTYPPGSTFKVVVTAAALAAGTTPDTQLTAAPQITLPGTSTTLENYNGSTCGGAPTASLREAFARSCNTAFVELGVKTGTDAVSDQSSALGIGGQMPGVPFPVADSTIGSIPDDAALGQSSIGQRDVALTPLQNAMIAATVANGGVRMQPQLVSELQGPDLSNLATTNPVSEGQAMSSQVAATLTDLMIGSENNTSGEGKIPGVQIASKTGTAEHGTDPRNTPPHAWYIGFAPAQNPTVAIAVIVEDGGDRALAATGGSVAAPIGRAVIAAGLQGG”, the protein production entry is listed as “failed”. Regarding “MNTTPFPALSAETLLAVNTVGQWLAQNDFSGEQPYSSDCVVLAGNAVIPTIDAACRIAKAQGVPLLISGGIGHSTPFLYAVIARHPRYHTIRTSGRAEAAILADIANQFWHIPAEKIWLEDRSTNCGENARFSCALIRQAKENINTAIVVQDPTMQRRTIAAFRRVTNDDTDAPRWLSFPGFVPVLRHLNDGTRFANVEEGIWTVERYLSLIAGELPRLRDDETGYGPRGKDFIIHVDIPRDIENAWQVLQADTTLRSALGQRALRLEHHHHHH”, the protein production entry was “not failed”. In the case of “MNTTQGEYTTTAKWLHWLMATLIALAWLIGFYVSDLPKGPEKAAIMAWHKGLGTAVLALITVRLAWRLLHPPPRLPDTLSPGLQRAAHSAHWTLYGLMIAQPLSGWAVSSANGYPVKLFGLITLPALVEKNEVLAQTFVEIHEFLAWGLALLVVGHVVMAIKHHHVDRNGILHRMLPGRRPTSD”, the protein production result is listed as “failed”. For the sequence “MNTVDEDIKFKEVPGITNILLLSSDARPGEDVSRSDSIMILTIDNINKKLKVTSLMRDMLVKIDGHGEEKLNHAFAYGGPTKTIETIQNNFGIKLNNYVIVDFNAFVKVIDAINGIEVTVKDYELDELNKYILDGGGSEEDLLPSPGTYNLNGYQALSYARIRKVGNGEYERTERQRAVLQIALEKVKDMSTVKLVSLLNELFPYVKTNISLGNAMDYGFTALNVGKKCNFEIEQFRVPLDSISKGGIINNKGWVFVIDKVETSKALQEFIFNDNKNYEPDTSNFDSIIEQYFNDYDIKDDTTHPDYEYVPSINTNGNFEKPKNNSGNSSNNNSNNKVEKPSNQGNSVNSSNKPSNGSTSTGNNSTEKPNTSEKPSIPQETPTEKPLEHHHHHH”, the protein production result is on record as “failed”. “MNTVPLKPQRLLSLDVFRGMTIVLMIFVNGQAAIDPYPIFEHVDWNGCTLADLVFPFFLFIVGLTSVISLKNQMERKAKTSLYSAIIERSVVLFLLGLFLNVFPHPIEFDSIRIYGILQRIAVCYLISAFIYLNTSIKTQFFIFLVLLLGYWIIMTQVPVPGYGANQLTKDGSWVSYFDQLFFSASHLYEKTYDPEGFLSTFTSIATTLSGVLAGSLLISPCNQFKKFYLLAGIGLLFLLLGWLWNMSFPINKNLWTSSYVLWTSGLALLAFAFCYLLIDRFGVKKWSVFFKVFGMNALFAFVFHVLLLKLQYAFKITTPDGSKMVLISYLKDYFFGGFSNHNAALLYSICFLFLNFLVVLILYKRNVFIRI”: the protein production result is on record as “failed”.

For “MNTYLKNSPGFWIGRIHHKLKNRMNQRLKPYDLTAEQRLILLRLFEFGEMTQQQLCQKTFTEPSNITLTLRRMESHGYVRKKPHPKDKRASLIEATPKALSIQNELERIGLEITDSLLLEVDPSEKETLLRVLQAMYQKMLQEEAIEEFSF”, the protein production entry is recorded as “failed”.

“MNVEKLKRLQAQVRIGGKGTPRRKKKVMHQTAATDDKKLQSSLKKLSVSTIPGIEEVNIIKDDLTVIHFNNPKAQASLSANTFAVTGHGETRKVVEMLPDILPQLGQETVVQLRMYANAMNSQKGAPGSGDGPLPAEEDDDVPLLVGDFDEVAKVEATKQPVHEPKESAEIKAKDKQQQQPKKEQKQSAKVPETTNPSENPKEKQENKKGQAKNNKKGDPQTNKDKTNKSKDQAKGQPAPQANKETTQAAQALKQNPSKPAVQQKKDQVLAVDQKIEANGAIQKAQQPKPAETKSTDQKVEPKSAEKQVDKAKPIEQTKTKESKVEHPKPAQKQLDQNTQAKPTAERSEAKPVVPTPEPQKSAPPAVQTLAQIVALPAEKPANEAVAAPKAEEQKKDSSGPAKVEPAITPSAPQPVTTAEPPKSALKQDSPPKSAPKQGSPPKNVPKQESPPQSAPKQDSPPKGAPKQDSPPKGAPKQDSPPKGAPKQDSAPQQKTPPPVKQEVAPAKQDEPPAKQDAPPAKQDAPVPVPEVIKTLAPEVPNVSQAPAQPQGQAALASEKPADAPKAIEEPKAAPKKESPPPTKPVTATVPVAPATPAEAPSPLAPSTPPSTPTSVPPSAATVTPPSPATVTPPSPAVVTPPQKQSAAPQAGIKKQEAGTKTKQQQPANKPQQPQKQPPGGAGGSAGPGGNKGVQKQPNPNAKPAVAPKPAQATPKPAAASPKASPNQTNPQQQQGKAANKASPPKQTGPTGGQQKSAANASKATASPKSAASPKATSPKAGTPTNPASASGGPN”: the protein production result is “failed”. On to “MNVFAFSISGGGSERSYKETEKTSAMTTTHSTKLQPSQAILFKMREDAPPLNLTEEMPPPFPTKANYLIHPVRLEHHHHHH”, for which the protein production result is recorded as “failed”. For “MNVIGKVTVLPQLPAEIARLSELAYNLYWSWTPRAQALYRDLSPELWERFQHNPVRLLLEADQDRLNAAAQDPAYLGRYAQVMADFDAYMGKKDTWAARHAPQMKPVAYFSMEYAFHESLPIYSGGLGVLAGDHCKSASDLGLPFTAVGMLFSQGYFRQLFDKDGWQNEAYDELDLTTLPIQPAQSAAGEDIRVSVRIAGREVAVKVWTLQVGRVRVLLLDSNVPDNSEDDRKLTARLYGGNQELRVQQYVLLGVAGIRALRALDVPASVYHMNEGHAALMALERMREYVAAGQDFRTAAELAASSTLFTTHTPVAAGNDAFTYELMDKYIGEWPGLLHAGRDELYALARHDQQWDGHTVPAFSMTVFALSMSRAANGVSELHGEVSRGMWNFLYPGAEENEVPIGHVTNGAHNLTFTSQRMRDLLSTVLPEDWTERLEDETMWQAVEQLTEEQLSNVQREMKREMITFVRGRVREQLLRNGASAADVAATDNLLDEGTLTIGFARRFATYKRATLLLRDKPRLAAIVNNPERPVQFVFAGKAHPADNPGKAFIQEIYRTSQEPEFRGKIVILENYDMNVARHLVQGVDIWLNNPRRPLEASGTSGMKASFNGSPNFSVLDGWWREGYDGTNGWPIGEEREYADLNVQDDADAFDLYQRLEHEIAPRYYGHAQGNASWAHTVRDAIETVSPRFSMQRQVLDYVQQYYLPLGQRGTQLADHGGARARDLAAWKAWVRQQWPHTSISAQANLPATARPGEQVTVSAQVNPAGIRPEELRVEAVLKRGDEVQRYPLAPGEGGQYSAEIPLDDSGLYSVGVRMLPLIDGLSNDLEAGLIKWA” the value was “failed”. As to “MNVLDGAALEIGVPTVRTGIAGDGTLISVSGGSGADATPESDRILGALVLDDTHIDAVAVRRRRRGQGIGTALVEAALDRRDRLTAEFDADVRPFYEQLGFDVELLDDEDGRFRGIRK”, the protein production entry is recorded as “failed”.

Values taken from a protein production outcome set (Wang et al. 2014).
